Experimental data from US20140341881A1 (DERMADIS, published 2014).
Where two headings read alike, the source gives them in different places.

How the values were obtained:
human kallikrein 2 (hK2) [1] = target: T1, human kallikrein 2 (hK2) (human, UniProt P20151 25-261); test: cell-based or functional assay
[2] = target: T2, prostate specific antigen (PSA, hK3) (human, UniProt P07288 25-261); test: cell-based or functional assay
human kallikrein hK1 = human kallikrein hK1 (human, UniProt P06870 25-262); test: cell-based or functional assay
[3] = target: T3, human plasma kallikrein (PK) (human, UniProt P03952 20-638); test: cell-based or functional assay
T3 sequence (P03952 20-638 limits assumed): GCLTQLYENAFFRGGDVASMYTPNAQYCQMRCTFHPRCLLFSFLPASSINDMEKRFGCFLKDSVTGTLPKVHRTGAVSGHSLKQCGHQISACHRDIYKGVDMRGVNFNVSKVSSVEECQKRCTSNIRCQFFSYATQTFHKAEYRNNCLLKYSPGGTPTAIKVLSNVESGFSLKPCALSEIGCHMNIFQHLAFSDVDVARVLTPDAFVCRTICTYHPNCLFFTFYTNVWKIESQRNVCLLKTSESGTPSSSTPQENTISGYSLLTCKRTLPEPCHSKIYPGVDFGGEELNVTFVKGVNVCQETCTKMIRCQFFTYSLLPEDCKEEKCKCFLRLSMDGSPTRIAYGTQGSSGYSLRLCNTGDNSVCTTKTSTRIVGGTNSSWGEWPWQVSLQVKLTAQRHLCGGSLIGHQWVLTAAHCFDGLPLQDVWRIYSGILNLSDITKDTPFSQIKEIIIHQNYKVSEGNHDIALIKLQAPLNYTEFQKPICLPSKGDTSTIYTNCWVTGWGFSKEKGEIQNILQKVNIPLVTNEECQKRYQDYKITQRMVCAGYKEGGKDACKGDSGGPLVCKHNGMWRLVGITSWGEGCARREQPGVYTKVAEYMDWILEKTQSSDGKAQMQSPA

[4] = target: urokinase plasminogen activator (uPA) (UniProt P00749 21-431, limits assumed); test: cell-based or functional assay
[5] = target: T3, human plasma kallikrein (PK); test: progress curve, ka with PK against ka with hK2
Protocol: Under these conditions, a fixed amount of enzyme (2 nM) was mixed with different concentrations of inhibitor (0-800 nM) and an excess of substrate (10 μM). Each reaction was made in reaction buffer (50 mM Tris pH 7.5, 150 mM NaCl, 0,05% Triton X-100, 0.01% BSA) at 25° C. for 45 min and the rate of product formation was measured using a FLₓ800 fluorescence 96-well microplate reader (Biotek, USA). In this model, inhibition is considered to be irreversible over the course of reaction and the progress of enzyme activity is expressed by product formation (P), beginning at a rate (vz) and is inhibited over time (t) at a first-order rate (kobs), rate constant that is dependent only on inhibitor concentration.
The rate of inhibitory reaction with variant ACTs was determined for each protease showing reactivity with these inhibitors. To that end, interaction of hK2 and recombinant serpins was measured under pseudo-first order conditions using progress curve method. hK2 (2 nM) and substrate Z-FR-AMC […] were added to varying amounts (20 n-800 nM) of inhibitors rACT_{8.20}, rACT_{5.18} and inhibitors rACT_{6.2}, rACT_{8.3}, rACT_{6.7}, rACT_{6.1} (data not shown). […] After determination of kobs, association constants (ka) were calculated using Kₘ of the proteases for their corresponding substrates (table VI). […]

human kallikrein 2 (hK2) [6] = target: T1, human kallikrein 2 (hK2); test: progress curve, pseudo-first order, fluorogenic substrate
[7] = target: T3, human plasma kallikrein (PK); test: as above
human kallikrein 2 (hK2) [8] = target: T1, human kallikrein 2 (hK2); test: residual enzyme activity against [I]o/[E]o, fluorogenic substrate
[9] = target: T3, human plasma kallikrein (PK); test: as above
[10] = target: T4, human chymotrypsin (Chtr) (human, UniProt P17538 19-263); test: progress curve
T4 sequence (P17538 19-263): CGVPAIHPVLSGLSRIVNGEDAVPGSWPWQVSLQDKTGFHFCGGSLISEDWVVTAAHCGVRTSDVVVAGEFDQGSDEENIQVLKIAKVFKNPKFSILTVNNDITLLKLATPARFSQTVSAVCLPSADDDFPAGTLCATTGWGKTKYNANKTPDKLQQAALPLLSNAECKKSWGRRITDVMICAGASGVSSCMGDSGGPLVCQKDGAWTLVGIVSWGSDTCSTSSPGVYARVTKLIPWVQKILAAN

[11] = target: T3, human plasma kallikrein (PK); test: progress curve
[12] = target: T5, human kallikrein 14 (hK14) (human, UniProt Q9P0G3 25-251, limits assumed); test: progress curve
T5 construct: range counted on GenBank AAK48524 (printed), which may differ from the UniProt numbering; also called recombinant hK14
T5 sequence (looked up): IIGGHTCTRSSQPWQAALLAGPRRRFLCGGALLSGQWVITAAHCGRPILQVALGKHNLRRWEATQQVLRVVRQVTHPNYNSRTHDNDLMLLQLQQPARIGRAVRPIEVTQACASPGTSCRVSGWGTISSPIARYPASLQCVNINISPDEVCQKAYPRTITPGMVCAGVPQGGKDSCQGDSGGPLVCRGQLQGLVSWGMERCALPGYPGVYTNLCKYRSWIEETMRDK

[13] = target: T4, human chymotrypsin (Chtr); test: cell-based or functional assay
[14] = target: T3, human plasma kallikrein (PK); test: cell-based or functional assay; remark: listed apart in the source
[15] = target: T6, human neutrophil elastase (HNE) (human, UniProt P08246 30-247, limits assumed); test: cell-based or functional assay
T6 sequence (looked up): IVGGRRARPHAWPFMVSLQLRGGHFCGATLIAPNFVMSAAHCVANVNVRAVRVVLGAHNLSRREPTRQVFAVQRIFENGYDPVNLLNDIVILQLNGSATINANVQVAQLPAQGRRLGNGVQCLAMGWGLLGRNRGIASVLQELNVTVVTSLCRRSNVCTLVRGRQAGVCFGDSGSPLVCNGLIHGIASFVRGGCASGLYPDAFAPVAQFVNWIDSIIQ

thrombin = test: cell-based or functional assay
[16] = target: T5, human kallikrein 14 (hK14); test: cell-based or functional assay
human kallikrein 8 (hK8) [17] = target: T7, human kallikrein 8 (hK8) (human, UniProt O60259 33-260); test: cell-based or functional assay
T7 sequence (looked up): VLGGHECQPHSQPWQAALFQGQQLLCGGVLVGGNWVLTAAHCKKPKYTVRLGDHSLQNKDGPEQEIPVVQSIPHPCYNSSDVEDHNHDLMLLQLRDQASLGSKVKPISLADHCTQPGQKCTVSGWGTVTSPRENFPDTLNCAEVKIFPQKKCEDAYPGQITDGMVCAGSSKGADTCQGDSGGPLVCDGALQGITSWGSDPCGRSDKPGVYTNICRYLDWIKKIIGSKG

[18] = target: T4, human chymotrypsin (Chtr); test: residual enzyme activity against [I]o/[E]o
[19] = target: T3, human plasma kallikrein (PK); test: residual enzyme activity against [I]o/[E]o
[20] = target: T5, human kallikrein 14 (hK14); test: residual enzyme activity against [I]o/[E]o
human kallikrein 8 (hK8) [21] = target: T7, human kallikrein 8 (hK8); test: residual enzyme activity against [I]o/[E]o
human kallikrein 2 (hK2) [22] = target: T1, human kallikrein 2 (hK2); test: Western blot, 1 µg inhibitor with 100 ng kallikrein, 1 h at 37 C
Protocol: (§1) Analysis of the inhibitory reaction between rACTs and the human kallikreins were analysed by Western Blot (data not shown). For each variants of ACT, 1 μg of inhibitor was incubated with 100 ng of either hK2 or hK3 during 1 hour at 37° C. under physiological conditions.

[23] = target: T2, prostate specific antigen (PSA, hK3); test: as above
Protocol: as §1

B1: rACT6.7 (other)
chain: MRGSHHHHHHSRHPNSPLDEENLTQENQDRGTHVDLGLASANVDFAFSLYKQLVLKAPDKNVIFSPLSISTALAFLSLGAHNTTLTEILKGLKFNLTETSEAEIHQSFQHLLRTLNQSSDELQLSMGNAMFVKEQLSLLDRFTEDAKRLYGSEAFATDFQDSAAAKKLINDYVKNGTRGKITDLIKDLDSQTMMVLVNYIFFKAKWEMPFDPQDTHQSRFYLSKKKWVMVPMMSLHHLTIPYFRDEELSCTVVELKYTGNASALFILPDQDKMEEVEAMLLPETLKRWRDSLEFREIGELYLPKFSISRDYNLNDILLQLGIEEAFTSKADLSGITGARNLAVSQVVHKAVLDVFEEGTEASAATAVKIKLRTTLVETRTIVRFNRPFLMIIVPTDTQNIFFMSKVTNPKQA
notes: recombinant ACT variant, RSL substrate peptide KLRTT; N-terminal His tag, E. coli TG1; also called MD67; MD 67
INHIBITION % (human kallikrein 2 (hK2) [1]): 100%
INHIBITION % [2]: 0%
INHIBITION % (human kallikrein hK1): 0%
INHIBITION % [3]: 36%
INHIBITION % [4]: 0%
fold lower ka than with hK2 [5]: 45 fold
kon (human kallikrein 2 (hK2) [6]): 8990 M⁻¹ s⁻¹
kon [7]: 201 M⁻¹ s⁻¹
SI (stoichiometry of inhibition) (human kallikrein 2 (hK2) [8]): 9
SI (stoichiometry of inhibition) [9]: 277

B2: rACTPCI (other)
chain: MRGSHHHHHHSRHPNSPLDEENLTQENQDRGTHVDLGLASANVDFAFSLYKQLVLKAPDKNVIFSPLSISTALAFLSLGAHNTTLTEILKGLKFNLTETSEAEIHQSFQHLLRTLNQSSDELQLSMGNAMFVKEQLSLLDRFTEDAKRLYGSEAFATDFQDSAAAKKLINDYVKNGTRGKITDLIKDLDSQTMMVLVNYIFFKAKWEMPFDPQDTHQSRFYLSKKKWVMVPMMSLHHLTIPYFRDEELSCTVVELKYTGNASALFILPDQDKMEEVEAMLLPETLKRWRDSLEFREIGELYLPKFSISRDYNLNDILLQLGIEEAFTSKADLSGITGARNLAVSQVVHKAVLDVFEEGTEASAATAVKITFRSALVETRTIVRFNRPFLMIIVPTDTQNIFFMSKVTNPKQA
notes: E. coli TG1, Ni-NTA purified; also called MDCI; MD CI
kon [10]: 86200 M⁻¹ s⁻¹
kon [11]: 25900 M⁻¹ s⁻¹
kon [12]: 287000 M⁻¹ s⁻¹
INHIBITION % [13]: 98%
INHIBITION % [14]: 100%
INHIBITION % [15]: 0%
INHIBITION % (thrombin): 0%
INHIBITION % [16]: 100%
INHIBITION % (human kallikrein 8 (hK8) [17]): ~25%
SI (stoichiometry of inhibition) [18]: 1
SI (stoichiometry of inhibition) [19]: 4.6
SI (stoichiometry of inhibition) [20]: 3.2
SI (stoichiometry of inhibition) (human kallikrein 8 (hK8) [21]): ~180
binding result (human kallikrein 2 (hK2) [22]): binds
binding result [23]: binds
